Reference: US20190062453A1 (Hoffmann-La Roche, published 2019)
Changes are numbered by the printed parent chain.

B1: DR5TAA-0036 (bispecific antibody, human IgG1, kappa)
HC (DR5-crossed FAP): not shown
LC (DR5): ALVMTQTPSSVSAAVGGTVTINCQASQNIYSNLAWFQQKPGQPPKLLIYETSKLASGVPSRFSGSGSGTEFTLTISDLECDDAATYYCQSSWHSISTDCAFGGGTEVVVKRTVAAPSVFIFPPSDEQLKSGTASVVCLLNNFYPREAKVQWKVDNALQSGNSQESVTEQDSKDSTYSLSSTLTLSKADYEKHKVYACEVTHQGLSSPVTKSFNRGEC
Crossed LC (FAP): EIVLTQSPGTLSLSPGERATLSCRASQSVSRSYLAWYQQKPGQAPRLLIIGASTRATGIPDRFSGSGSGTDFTLTISRLEPEDFAVYYCQQGQVIPPTFGQGTKVEIKSSASTKGPSVFPLAPSSKSTSGGTAALGCLVKDYFPEPVTVSWNSGALTSGVHTFPAVLQSSGLYSLSSVVTVPSSSLGTQTYICNVNHKPSNTKVDKKVEPKSCD
B2: DR5TAA-0005 (antibody, V domains shown)
VH: QSLEESGGRLVTPGTPLTLTCTASGFSLSSAYMSWVRQAPGKGLEWIGYIYSGSGSTWYASWVKGRFTISKTSTTVDLKITSPTTEDTATYFCARGYSTMGDLWGPGTLVTVSS
VL: QVLTQTPSPVSAAVGGTVTINCQASQSVYNNRLAWYQQKPGQPPKLLIYLASTLASGVPSRFKGSGSGTQFTLTISDLQCDDAATYYCAGGYSGNINAFGGGTEVVVKG
notes: rabbit IgG; also called 039; clone 039
B3: DR5TAA-0006 (antibody, V domains shown)
VH: QSLEESGGRLVTPGTPLTLTCTASGFSLSSNHMSWVRQAPGKGLEWIGYIYAGSGSAYYASWAKGRFTISRTSTTVDLKMTSLTTEDTATYFCAGDAGSSYWEFNLWGPGTLVTVSS
VL: LVMTQTPSSTSEPVGGTVTIKCQASQSIGSSLSWYQQKPGQPPKLLIYHASTLASGVPSRFSGSRSGIQTTLTISGVQCDDAATYYCLGVADARRDDGFAFGGGTEVVVKG
notes: rabbit IgG; also called 058; clone 058
B4: DR5TAA-0010 (antibody, V domains shown)
VH: QSLEESGGRLVKPDETLTLTCTVSGFSLSSNAISWVRQAPGMGLEWIGIIGSSGYTYYASWAKGRFTVSKTSTTVDLEIASPTTEDTATYFCARGYSGASDYSFNLWGPGTLVTVSS
VL: AYDMTQTPDSVEVAVGGTVTIKCQASQTIGDALAWYQQKPGQRPNLLIYRTSTLASGVPSRFSGSGSGTHFTLTISGVECADAATYYCQQGATYNNVLNTFGGGTEVVVKG
notes: rabbit IgG; also called 481; clone 481
B5: DR5TAA-0013 (antibody, V domains shown)
VH: B3 VH with S27T, L28I, N31Y, G55A, A57T, Y58W, A63V, R71K, G95R
VL: LVMTQTPSSTSEPVGGTVTIKCQASQSIGSSLSWYQQTPGQPPKLLIYTASSLASSVPKRFSGSRSGTQFTLTISGVQCADAATYYCLGIDDVRRDDGFAFGGGTEVVVKG
notes: rabbit IgG; also called 298; clone 298
B6: DR5TAA-0019 (antibody, V domains shown)
VH: QSVEESGGRLVTPGTPLTLTCTVSGFSLSNYAMSWVRQAPGKGLEWIGIISSSGTTYYASWAKGRFTISKTSTTVDLKVTSPTTEDTATYFCARETYYGYSYAAGLWGPGTLVTVSS
VL: ALVMTQTPSSVSAAVGGTVTINCQASQNIYSNLAWFQQKPGQPPKLLIYETSKLASGVPSRFSGSGSGTEFTLTISDLECDDAATYYCQSSWHSISTDCAFGGGTEVVVKG
notes: rabbit IgG
B7: DR5TAA-0016 (antibody, V domains shown)
VH: QSLEESGGRLVKPDETLTLTCTVSGFSLNNYAMSWVRQAPGKGLEWIGMINKYGTKYYATWTKGRATISKTSTTLDLEITSPTTEDTATYFCARVRYAGDDYAEWLDVWGQGILVTVSS
VL: DIVMTQTASPVSAAVGGTVTINCQASQSISSSYVSWYQQKPGQPPKLLIYKASTLASGVPSRFSGSGSGTQLSLTIRGVQCDDAATYYCLYGYSDVSSSEYVFGGGTEVVVRG
B8: DR5TAA-0011 (antibody, V domains shown)
VH: QSVEESGGRLVTPGTPLTLTCTVSGFSISRYAMIWVRQAPGEGLEYIGFITSDSSAYYASWAKGRFTISKTSTTVDLKMTSPTTEDTATYFCARYTYSDGTDLWGPGTLVTVSS
VL: DIVMTQTPASVSEPVGGTVTIKCQASQSISTYLSWYQQKPGQPPKRLIYKASTLASGVPSRFKGSGSGTDFTLTIRDLECADAATYYCQPNSGIATYGAAFGGGTEVVVKG
notes: also called 174; clone 174
B9: 5E11 (antibody, V domains shown)
VH: not shown
VL: EIVLTQSPGTLSLSPGERATLSCRASQSVSSSYLAWYQQKPGQAPRLLIYGASSRATGIPDRFSGSGSGTDFTLTISRLEPEDFAVYYCQQGTTHPITFGQGTKVEIK
notes: Phage display Fab converted into hu IgG1, kappa light chain; also called clone 5E11
B10: 18F11 (antibody, IgG1, V domains shown)
VH: not shown
VL: B9 VL with T93Q, T94L, H95P
notes: hu IgG1
B11: 20F2 (antibody, IgG1, V domains shown)
VH: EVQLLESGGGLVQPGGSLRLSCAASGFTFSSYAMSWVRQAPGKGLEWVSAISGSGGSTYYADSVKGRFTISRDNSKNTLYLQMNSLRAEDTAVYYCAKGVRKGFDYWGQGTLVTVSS
VL: B9 VL with T93E, T94S, H95P, I97P
notes: hu IgG1; also called DR5 (20F2)

Experiments:
[1] = target: T1, Human FAP ectodomain + poly-lys-tag + his6-tag (human, UniProt Q12884 27-760); assay: SPR (Biacore), bispecific antibody bound to immobilised human DR5-Fc, recombinant human FAP as second analyte (simultaneous binding)
T1 construct: also called recombinant soluble human FAP; hFAP
Protocol: (§1) The dissociation was monitored for 60 s. The flow rate for all steps was 30 μl/min.

[2] = target: T2, Murine FAP ectodomain + poly-lys-tag + his6-tag (murine, UniProt P97321 27-761); assay: SPR (Biacore), bispecific antibody bound to immobilised human DR5-Fc, recombinant murine FAP as second analyte (simultaneous binding)
T2 construct: also called recombinant soluble murine FAP
Protocol: as §1

[3] = target: T3, murine DR5 ECD-AcTev-hu Fc-Avi (murine, UniProt Q9QZM4 53-153); assay: binding ELISA
T3 construct: range 53-153; also called mouse DR5

Recombinant human DR4-Fc [4] = target: T4, Recombinant human DR4-Fc (human, UniProt O00220 109-239); assay: binding ELISA
T4 construct: bought; also called huDR4Fc; human DR4 (TNFRSF10A); Fc part of the bought chimera not given

[5] = target: T5, Recombinant human DcR1-Fc (human, UniProt O14798 26-221); assay: binding ELISA
T5 construct: bought; also called huDcR1Fc; human DcR1 (TNFRSF10C); Fc part of the bought chimera not given
T5 sequence (looked up): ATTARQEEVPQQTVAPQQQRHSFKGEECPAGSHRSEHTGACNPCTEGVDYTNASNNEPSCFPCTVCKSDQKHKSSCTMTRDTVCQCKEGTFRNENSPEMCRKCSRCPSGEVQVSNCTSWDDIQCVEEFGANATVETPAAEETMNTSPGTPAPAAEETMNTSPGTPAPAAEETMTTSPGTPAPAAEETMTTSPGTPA

[6] = target: T6, Recombinant human DcR2-Fc (human, UniProt Q9UBN6 56-211); assay: binding ELISA
T6 construct: bought for the phage antibodies; also called huDcR2Fc; human DcR2 (TNFRSF10D); not shown: Fc part of the chimera
T6 sequence (looked up): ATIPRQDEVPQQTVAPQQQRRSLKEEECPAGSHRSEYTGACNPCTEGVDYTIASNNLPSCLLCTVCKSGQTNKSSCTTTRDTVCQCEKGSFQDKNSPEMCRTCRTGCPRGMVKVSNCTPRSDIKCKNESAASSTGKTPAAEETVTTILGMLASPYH

Recombinant human OPG-Fc [7] = target: T7, Recombinant human OPG-Fc (human, UniProt O00300 22-194); assay: binding ELISA
T7 construct: bought; also called rhuOPGFc; human Osteoprotegerin; Fc part of the bought chimera not given
T7 sequence (looked up): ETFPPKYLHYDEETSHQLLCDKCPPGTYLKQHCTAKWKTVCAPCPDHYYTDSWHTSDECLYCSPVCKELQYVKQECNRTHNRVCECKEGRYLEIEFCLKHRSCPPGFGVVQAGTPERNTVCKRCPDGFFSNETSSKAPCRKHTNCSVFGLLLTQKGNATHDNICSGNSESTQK

[8] = target: T8, human DR5 (monomeric Fc fusion) (human, UniProt O14763 56-207, biotinylated at the Avi tag in the ELISA (the tag is not in the letters)); assay: biochemical ELISA, biotinylated antigen on streptavidin plate
T8 construct: biotinylated in the ELISA; also called ECD-AcTev-hu Fc knob-Avi; not shown: AcTev site, hu Fc knob and Avi part of the fusion chain, and the separate Fc-hole chain

[9] = target: T9, Cynom. DR5 (ECD)-AcTev-Fc-Avi (cynomolgus); assay: as above
T9 construct: also called cynomolgus DR5; cy DR5
Protocol: Antigen binding immunoassays were performed at room temperature on 384 well streptavidin coated microtiter plates (MicroCoat Biotechnologie GmbH) with PBS buffer supplemented with 0.05% Tween®-20 and 0.5% BSA (Roche Diagnostics GmbH). […] After 90 min incubation the plate was washed 6 times with PBST (phosphate buffered saline with 0.2% Tween®-20) and developed with BM Blue® HRP substrate solution (BM Blue®: 3,3′-5,5′-Tetramethylbenzidine, Roche Diagnostics GmbH) for 30 minutes at RT. Absorbance was measured at 370 nm. The blank value was defined without addition of supernatant.

human DR5 ECD-Avi-his = target: T10, human DR5 ECD-Avi-his (human, UniProt O14763 56-207); assay: SPR, rabbit IgG captured by anti rabbit, monomeric DR5 injected
T10 construct: also called recombinant human DR5 (monomeric His-Avi fusion protein); monomeric human DR5
Protocol: The sample and system buffer was PBS-T (10 mM phosphate buffered saline including 0.05% Tween20) pH 7.4. The flow cell was set to 25° C.—and the sample block set to 12° C.—and primed with running buffer twice.
The dissociation phase was monitored for up to 300 sec and triggered by switching from the sample solution to running buffer. The surface was regenerated by 60 sec washing with a 100 mM H3PO4 (phosphoric acid) solution at a flow rate of 30 μl/min. Bulk refractive index differences were corrected by subtracting the response obtained from a blank surface. Buffer injections are also subtracted (=double referencing). For calculation of KD and other kinetic parameters the Langmuir 1:1 model was used.

Recombinant human DR4-Fc [10] = target: T4, Recombinant human DR4-Fc; assay: SPR, receptor-Fc on CM5 chip
[11] = target: T5, Recombinant human DcR1-Fc; assay: SPR, receptor-Fc on CM5 chip
[12] = target: T6, Recombinant human DcR2-Fc; assay: SPR, receptor-Fc on CM5 chip
Recombinant human OPG-Fc [13] = target: T7, Recombinant human OPG-Fc; assay: SPR, receptor-Fc on CM5 chip
[14] = target: T3, murine DR5 ECD-AcTev-hu Fc-Avi; assay: SPR, biotinylated DR5 on SA chip

T2 sequence (P97321 other isoform, or with tags, fused parts or gaps): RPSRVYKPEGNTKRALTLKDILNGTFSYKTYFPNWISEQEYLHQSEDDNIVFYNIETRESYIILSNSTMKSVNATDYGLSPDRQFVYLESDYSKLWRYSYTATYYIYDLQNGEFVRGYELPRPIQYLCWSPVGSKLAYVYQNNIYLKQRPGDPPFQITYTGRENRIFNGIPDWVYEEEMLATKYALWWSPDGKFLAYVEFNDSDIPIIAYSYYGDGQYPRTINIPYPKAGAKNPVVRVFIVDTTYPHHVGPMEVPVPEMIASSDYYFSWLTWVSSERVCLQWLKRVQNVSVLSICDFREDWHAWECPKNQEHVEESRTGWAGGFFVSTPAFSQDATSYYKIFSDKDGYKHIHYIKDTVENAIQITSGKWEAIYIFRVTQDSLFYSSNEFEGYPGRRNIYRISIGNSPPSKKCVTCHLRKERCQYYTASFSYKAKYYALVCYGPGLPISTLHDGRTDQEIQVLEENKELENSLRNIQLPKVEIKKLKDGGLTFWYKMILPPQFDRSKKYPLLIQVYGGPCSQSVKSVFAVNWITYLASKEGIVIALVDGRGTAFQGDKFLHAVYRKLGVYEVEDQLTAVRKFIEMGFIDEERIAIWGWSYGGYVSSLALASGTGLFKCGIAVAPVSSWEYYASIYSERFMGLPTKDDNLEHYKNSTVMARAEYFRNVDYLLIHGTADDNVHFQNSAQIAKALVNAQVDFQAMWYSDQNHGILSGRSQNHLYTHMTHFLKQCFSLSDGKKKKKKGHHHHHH

Row | Binder | binding result [1] | binding result [2] | binding result [3] | binding result (Recombinant human DR4-Fc [4]) | binding result [5] | binding result [6] | binding result (Recombinant human OPG-Fc [7]) | EC50 [8] | EC50 [9] | Kd (human DR5 ECD-Avi-his) | binding result (Recombinant human DR4-Fc [10]) | binding result [11] | binding result [12] | binding result (Recombinant human OPG-Fc [13]) | binding result [14]
1 | B1 | binds | binds | – | – | – | – | – | – | – | – | – | – | – | – | –
2 | B2 | – | – | no binding | no binding | no binding | no binding | no binding | 2.5 ng/mL | 3.7 ng/mL | 13.3 nM | – | – | – | – | –
3 | B3 | – | – | no binding | no binding | no binding | no binding | no binding | 2 ng/mL | 1.6 ng/mL | 5.92 nM | – | – | – | – | –
4 | B4 | – | – | no binding | no binding | no binding | no binding | no binding | 2.8 ng/mL | 8.7 ng/mL | 15.9 nM | – | – | – | – | –
5 | B5 | – | – | no binding | no binding | no binding | no binding | no binding | 2.1 ng/mL | 2.1 ng/mL | 9.12 nM | – | – | – | – | –
6 | B6 | – | – | no binding | no binding | no binding | no binding | no binding | 3.5 ng/mL | 2.2 ng/mL | 0.675 nM | – | – | – | – | –
7 | B7 | – | – | no binding | no binding | no binding | no binding | no binding | 4 ng/mL | 2.7 ng/mL | 1.45 nM | – | – | – | – | –
8 | B8 | – | – | no binding | no binding | no binding | no binding | no binding | 2 ng/mL | 4.3 ng/mL | 4.24 nM | – | – | – | – | –
9 | B9 | – | – | – | – | – | – | – | – | – | – | no binding (tested: 500, 100 and 25 nM) | no binding (tested: 500, 100 and 25 nM) | no binding (tested: 500, 100 and 25 nM) | no binding (tested: 500, 100 and 25 nM) | no binding (tested: 500, 100 and 25 nM)
10 | B10 | – | – | – | – | – | – | – | – | – | – | no binding (tested: 500, 100 and 25 nM) | no binding (tested: 500, 100 and 25 nM) | no binding (tested: 500, 100 and 25 nM) | no binding (tested: 500, 100 and 25 nM) | no binding (tested: 500, 100 and 25 nM)
11 | B11 | – | – | – | – | – | – | – | – | – | – | no binding (tested: 500, 100 and 25 nM) | no binding (tested: 500, 100 and 25 nM) | no binding (tested: 500, 100 and 25 nM) | no binding (tested: 500, 100 and 25 nM) | no binding (tested: 500, 100 and 25 nM)
